T1: TrwE/VirB10 (plasmid R388, UniProt O50337 1-395)
T1 sequence: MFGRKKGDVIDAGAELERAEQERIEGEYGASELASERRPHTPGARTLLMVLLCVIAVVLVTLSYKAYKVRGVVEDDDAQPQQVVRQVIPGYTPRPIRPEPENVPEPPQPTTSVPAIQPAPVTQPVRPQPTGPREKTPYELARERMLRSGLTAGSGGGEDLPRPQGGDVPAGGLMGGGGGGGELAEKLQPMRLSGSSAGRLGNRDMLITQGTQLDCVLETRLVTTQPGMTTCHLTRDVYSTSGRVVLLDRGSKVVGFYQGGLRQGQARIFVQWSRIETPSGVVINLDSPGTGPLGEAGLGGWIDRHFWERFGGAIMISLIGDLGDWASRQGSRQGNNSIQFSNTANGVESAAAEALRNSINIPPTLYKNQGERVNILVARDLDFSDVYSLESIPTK

B1: TrwI/VirB6 (natural protein, plasmid R388)
chain: MAFELFTPLFNKIDQTTATYVTDISSRAIAAITPVVSVGLTLGFITYGWLIIRGAVEMPVAEFLNRCLRIGIIVSIALAGGLYQGEIANAITTVPDELASALLGNPTEGASAAALVDQSAQQGFDRASEAFEEAGFFSSDGLLYGLFGIIIPAGYGPAGAIGGAFLLLAKIALALLAGLGPLFILALIWQPTHRFFDQWAQQVLNYGLLIVLFAAVFGLLMQIFGSYMADLRFDGAQNVAYAIGGSVILSIVSIVLLMQLPSIASGLAGGIGLGYMWELRSMRSGAGAAMRGGRAMARGARAAPGAARGAAVGAANMAKTVATGGAGVARAAAGYFRGRKAG
B2: TrwJ/VirB5 (natural protein, plasmid R388, UniProt O50331 23-226, looked up)
chain: QGIPVFDGTRALDFVQQFARMKEQLDTAKDQLAEAQRMYEAVTGGRGLGDLMRNAQLREYLPDDLRTVYDSANGGGYSGISGSINDILRDERLNGSVADMRRSIEERSRTARTTDKAVGCGPTKGHSNASRRLKDEISRTQDQKAIEELQARIAGEQAAIQNETTKLQMIAQLRQAEQALISEQRRERNMPILSSGNQGMPTIQ
B3: TrwG/VirB8 (natural protein, plasmid R388)
chain: MSKKQPKPVKAEQLKSYYEESRGLERDLIGEFVKSRKTAWRVATASGLFGLLGMVCGIVGFSQPAPAPLVLRVDNATGAVDVVTTLREHESSYGEVVDTYWLNQYVLNREAYDYNTIQMNYDTTALLSAPAVQQDYYKLFDGSNARDRVLGNKARITVRVRSIQPNGRGQATVRFTTQQHNSNGTVERPQHQIATIGYTYIGAPMRSSDRLLNPLGFQVTSYRADPEILNN
B4: TrwF/VirB9 (natural protein, plasmid R388)
chain: LDVPSSSRYDHRIRYVTYNPADVVQVDTVLGVATHIMLEEGEQYLTHAFGIPKPMPLPGRAGIFLSSRTAELANTNLIVVTDRRSYKFRLQMRNDRNGAMYELAFRYPDTQARQTREANARAAVEAAFEQRVGAYYNLKYMMSGDKDIAPVNAWDDGRFTYFKFSANADLPSIYFVDAEGNESLVPRTTVGSSNNIIAVHKVNPKWMIRLGNRALAIFNEAYDPNGVPNDTGTASPAVRRVNKGGN

Tests used:
Experiment in all cases: cryo-EM structure
[1] = molecular target: T1, TrwE/VirB10
[2] = molecular target: B1
[3] = molecular target: the molecule itself

binding result [1] | binding result [2] | Binder | stoichiometry N [3]
binds | – | B1 | –
– | binds | B2 | –
binds | – | B3 | 24
binds | – | B4 | –

— paper doi:10.1101/2024.02.08.579498 (bioRxiv, 2024)
